Data on six variants can be found in FireProtDB (doi:10.1021/bi00146a008).

To fix the notation:
B1: Lysozyme C, P61626 (parent)
chain: MKALIVLGLVLLSVTVQGKVFERCELARTLKRLGMDGYRGISLANWMCLAKWESGYNTRATNYNAGDRSTDYGIFQINSRYWCNDGKTPGAVNACHLSCSALLQDNIADAVACAKRVVRDPQGIRAWVAWRNRCQNRDVRQYVQGCGV

Variants of B1 are the subject of this data set. Conditions: Homo sapiens, pH 2.8, Thermal, DSC, glycine-HCl 50 mM, reversible: yes, structure 1LZ1, whole UniProt chain shown.

For orientation: Tm means the temperature at which the thermal transition is half complete. As for MKALIVLGLVLLSVTVQGKVFERCELARTLKRLGMDGYRGISLANWMCLAKWESGYNTRATNYNAGDRSTDYGIFQINSRYWCNDGKTGGAVNACHLSCSALLQDNIADAVACAKRVVRDPQGIRAWVAWRNRCQNRDVRQYVQGCGV [P89G], the Tm stood at 64.1 °C; the “change of melting temperature, mutant - wild type (higher = more stable)” value (“change of melting temperature, mutant” for short) was -4.7 °C; the “heat capacity change of unfolding” value was determined as 1.58 kcal/mol/K. For the same variant, under “68.8 °C”, the “ddG of mutation (higher = less stable)” value worked out at 1.6 kcal/mol, the “heat capacity change of unfolding” value was 1.58 kcal/mol/K and the “unfolding enthalpy (calorimetric)” value came to 121 kcal/mol.

For the variant MKALIVLGLVLLSVTVQGKVFERCELARTLKRLGMDGYRGISLANWMCLAKWESGYNTRATNYNAGDRSTDYGIFQINSRYWCNDGKTPGAVNACHLSCSALLQDNIADAVACAKRVVRDPQGIRAWPAWRNRCQNRDVRQYVQGCGV [V128P], the Tm was 70 °C; the “change of melting temperature, mutant” value amounted to 1.2 °C; the “heat capacity change of unfolding” value stood at 1.57 kcal/mol/K. Further, under “68.8 °C”, the “ddG of mutation (higher = less stable)” value is -0.5 kcal/mol, the “heat capacity change of unfolding” value came to 1.57 kcal/mol/K and the “unfolding enthalpy (calorimetric)” value is 120 kcal/mol.

For the variant MKALIVLGLVLLSVTVQGKVFERCELARTLKRLGMDGYRGISLANWMCLAKWESGYNTRATNYNAGDRSTDYGIFQINSRYWCNDGKTPGAVNACHLSCSALLQDNIADAVACAKRVVRDGQGIRAWVAWRNRCQNRDVRQYVQGCGV [P121G], the melting temperature (Tm) was determined as 68.7 °C; the “change of melting temperature, mutant” value was -0.1 °C; the “heat capacity change of unfolding” value amounted to 1.58 kcal/mol/K. In addition, for the setting “68.8 °C”, the “ddG of mutation (higher = less stable)” value was found to be 0.1 kcal/mol, the “heat capacity change of unfolding” value was 1.58 kcal/mol/K and the “unfolding enthalpy (calorimetric)” value was found to be 120 kcal/mol.

In the case of MKALIVLGLVLLSVTVQGKVFERCELARTLKRLGMDGYRGISLANWMCLAKWESGYNTRATNYNAGDRSTDYGIFQINSRYWCNDGKTGGAVNACHLSCSALLQDNIADAVACAKRVVRDGQGIRAWVAWRNRCQNRDVRQYVQGCGV [P89G P121G], the Tm came out at 64.3 °C; the “change of melting temperature, mutant” value is -4.5 °C; the “heat capacity change of unfolding” value came out at 1.58 kcal/mol/K. Where the note is “68.8 °C”, the “ddG of mutation (higher = less stable)” value is 1.6 kcal/mol, the “heat capacity change of unfolding” value came out at 1.58 kcal/mol/K and the “unfolding enthalpy (calorimetric)” value worked out at 120 kcal/mol.

In the case of MKALIVLGLVLLSVTVQGKVFERCELARTLKRLGMDGYRGISLANWMCLAKWESGYNTRATNYNPGDRSTDYGIFQINSRYWCNDGKTPGAVNACHLSCSALLQDNIADAVACAKRVVRDPQGIRAWVAWRNRCQNRDVRQYVQGCGV [A65P], the melting temperature (Tm) came to 69.1 °C; the “change of melting temperature, mutant” value was 0.3 °C; the “heat capacity change of unfolding” value came out at 1.56 kcal/mol/K. Further, for the setting “68.8 °C”, the “ddG of mutation (higher = less stable)” value is -0.1 kcal/mol, the “heat capacity change of unfolding” value was determined as 1.56 kcal/mol/K and the “unfolding enthalpy (calorimetric)” value was found to be 119 kcal/mol.

Consider MKALIVLGLVLLSVTVQGKVFERCELARTLKRLGMDGYRGISLANWMCLAKWESGYNTRATNYNAGDRSTDYGIFQINSRYWCNDGKTPGAVNACHLSCSALLQDNIAPAVACAKRVVRDPQGIRAWVAWRNRCQNRDVRQYVQGCGV [D109P], for which the Tm was 67.7 °C; the “change of melting temperature, mutant” value is -1.1 °C; the “heat capacity change of unfolding” value was 1.57 kcal/mol/K. Where the note is “68.8 °C”, the “ddG of mutation (higher = less stable)” value amounted to 0.4 kcal/mol, the “heat capacity change of unfolding” value stood at 1.57 kcal/mol/K and the “unfolding enthalpy (calorimetric)” value was found to be 115 kcal/mol.
